# Measurements from US9707290.
# Changes are numbered by the printed parent chain.
# B1: 10E8_T117v2-1 (designed binder)
# chain: NAMQGIHFRRHYVRHLPKEVSQNDIIKALASPLINDGMVVSDFADHVITREQNFPTGLPVEPVGVAIPHTDSKYVRQNAISVGILAEPVNFEDAGGEPDPVPVRVVFMLALGNWFDITNVLWWIKAVIQDEDFMQQLLVMNDDEIYQSIYTRISELEHHHHHH
# B2: 10E8_T117v2-4 (designed binder)
# chain: B1 chain with T118S, N119R
# B3: 10E8_T117v2-5 (designed binder)
# chain: B1 chain with N119Q
# B4: 10E8_T117v2-3 (designed binder)
# chain: B1 chain with N113S, D116N, T118S, K125R
# B5: 10E8_T117v2-2 (designed binder)
# chain: B1 chain with D116S, N119K
# B6: 10E8_T117v2-1_RSF1 (designed binder)
# chain: NAMAGIVFRKHYVRHLGKTVTQNEIIRALAAPLISDGMVVKDFADHVIKREEQNPTGLPVQPVGVAIPHTDSKYVYYNAISVGILQEPVAFEDAGGDGRPVPVRVVFMLALGNWFDITNVLWWIKAVIQDDEFMKRLLYMTDDKIYESIRKRIYDLE
# B7: 10E8_T117v2-1_g28_g91012 (designed binder)
# chain: NAMQGIHFRRHYVRHLPKNVSQNDIIKALASPLINDGMVVSDFADHVITRENNSPTGLPVEPVGVAIPHTDSKYVNQSAISVGILAEPVNFEDANGTPDPVPVRVVFMLALGNWFDITNVLWWIKAVIQDEDFMQQLLNMSDDEIYQSIYTRISE
# modifications: added N-linked glycosylation sites (glycan-masked)
# B8: 10E8_T93v2RT12-1 (designed binder)
# chain: GKADEVREKARRRMEQAVEEFKRRLRQFEEKVKQKEPRDDEINRWIDIVKKKADEAKKRVEEVGDQAADEAAQLGNDPNVNWFDITNVLWDVKKLTEKAINDIDDALKKMKDWLESGLEHHHHHH
# B9: 10E8_T93v2RT12-5 (designed binder)
# chain: B8 chain with N87Q
# B10: 10E8_T93v2RT12-4 (designed binder)
# chain: B8 chain with T86S, N87R
# B11: 10E8_T93v2RT12-3 (designed binder)
# chain: B8 chain with N81S, D84N, T86S, K93R
# B12: 4E10_T117 (designed binder)
# chain: HHHHHHNAMQGIHFRRHYVRHLPKEVSQNDIIKALASPLINDGMVVSDFADHVITREQNFPTGLPVEPVGVAIPHTDSKYVRQNAISVGILAEPVNFEDAGGEPDPVPVRVVFMLALGNWFDITNVLWWIMDVIQDEDFMQQLLVMNDDEIYQSIYTRISE
# B13: 4E10_T298 (designed binder)
# chain: GHHHHHHGSEVSQNDIIKALASPLINDGMVVSDFADHVITREQNAPTGLPVEPVGVAIPHTDSKYVRQNAISVGILAEPVNFEDAGGEPDPVPVRVVFMLALGNWFDITNVLWWIMDVIQDADFMQQLLVMNDDEIYQSIYTRISEAAGMAGIHFRRHYVRHLPLEHHHHHH
# B14: 10E8_T298v2 (designed binder)
# chain: GSEVSQNDIIKALASPLINDGMVVSDFADHVITREQNAPTGLPVEPVGVAIPHTDSKYVRQNAISVGILAEPVNFEDAGGEPDPVPVRVVFMLALGNWFDITNVLWWIKAVIQDADFMQQLLRMNDDEIYQSIYTRISEAAGMAGIHFRRHYVRHLGLEHHHHHH
# Molecular target: 10E8 antibody
# Experiment: SPR
row,Binder,Kd [nM]
1,B1,0.082
2,B2,0.59
3,B3,0.155
4,B4,0.925
5,B5,1.3
6,B6,0.05
7,B7,0.18
8,B8,0.04
9,B9,0.022
10,B10,2.7
11,B11,0.11

# Molecular target: 4E10 antibody
# Experiment: SPR
row,Binder,Kd [nM]
1,B1,0.168
2,B2,3.9
3,B4,0.526
4,B5,0.0538
5,B6,0.1
6,B7,0.49
7,B8,0.018
8,B11,0.58

# Molecular target: germline 10E8 (predicted germline precursor to 10E8)
# Experiment: SPR
row,Binder,Kd [nM]
1,B1,6000
2,B2,8000
3,B4,8000
4,B8,290000 to 720000

# Molecular target: germline 4E10
# Experiment: SPR
row,Binder,Kd [nM]
1,B1,0.187
2,B2,3.2
3,B6,0.1
4,B7,0.5

# Molecular target: 10E8 antibody
# Experiment: SPR
# Remark: another data set of the same source
row,Binder,Kd [nM]
1,B12,3
2,B13,3

# Molecular target: germline 10E8 (predicted germline precursor to 10E8)
# Experiment: SPR
# Remark: another data set of the same source
row,Binder,Kd [nM]
1,B1,30000
2,B14,105000

# Molecular target: 10E8 antibody
# Experiment: SPR; reference 10E8_T117v2
row,Binder,factor weaker than the corresponding 10E8 scaffold [fold]
1,B12,30

# Molecular target: 10E8 antibody
# Experiment: SPR; reference 10E8_T298v2
row,Binder,factor weaker than the corresponding 10E8 scaffold [fold]
1,B13,30

# Molecular target: 10E8 antibody
# Experiment: SPR, antibody on the sensor
row,Binder,Kd [nM]
1,B1,0.091
2,B14,0.172
